Assay results from the DeepSol protein solubility set.

Test: soluble on expression in E. coli; label from the status in PepcDB or PDB records
For “MAHHHHHHMRPHTPAKVATTASDGATTTKTTSHPVLLGCGLNWASFVASHPFEVKELTSVLVGDGSDDDGVPEERDALVQAQLPVASVVTSGATLERVFTEAMVCASARAEVARKVQHIATVWCLHPSSEYVATLCWPMEGGESASTTTAVLKVQTEGGRAPLDLRAVSLHVVDRGSLVFHPEFTRCILAQGAERFMYYVPPNPLEATTALPFMRGLWYNGLFSLLELLRIGPQHVVMLFVLPNGDTRYTLDLAPESPAVPAPSSTHQQGSGALGSAASRNATASLYPWRRQSKVRRVIRSGAYVVVVRDDTAGVVESLQRACSYHGQNKRSTWLNDIFIHLMGQCSRRDILCSADAAASQPAEADKANDVRLLCIELVEKATGEVMAGCCGMAVGCAYHDYTMYTLRQTKDGLGTFLTKLIGEALQRCGYTLWYWGFCVEYMRHFERHFGAVDMPRDVFYRRWSAARDAAPECSIDAYLRSHKGMVPYYEGTSALVKSKP”, the “soluble on expression in E. coli” value was “not soluble”. In the case of “MAHHHHHHMRVASFCLPLHLLSFGAQARGCFRHSTGGSSSVFCAARPFRLSHTMAASACSSAVHLDNFRLLAAGHDATHAAPSSAPLTAPISFSLTFHFQRYDGADFESFISSLGVSVDFVADVASEQTTLTLLPLTPVSGPWARRDTAAANGAFLMAASASDSSTSSSDYAAGAPLDGAAGAAPGMMYQLRVYLSDFRALEKVQLKHLLQVSMMHVRLAHLGTSDGVGNSDSSDPRTEERSVAAWNVIWRVRRNPQNEQELIRTVLDPLA”, the “soluble on expression in E. coli” value was “not soluble”. For “MAHHHHHHMRVLSLLSALCLVSTCRGHRNLFARNNYLQYLRSQNFMQEKPKFQKLNQNYSEDLNEFDNYEDDELDAENVEATSKERVTQKSGTSSSSSENKLEFKNIEKELNNMGEILHEEKDNLLLMGGGRECSVSDKGTLDVSLNSGDIFNLTKYTVEMSSSGILIRDTQNSNVVKEIAFDTVKLPIETIEETRECWKIRSHKETFLFCERSKEARDRWITNMLKALFCYNTNNLTIDEGVQTGLSSKVDIPKESTVDARIAASLKDEPNGSGDNSSHGRAKRKGNNNITISNLKNDKPEIVVN”, the “soluble on expression in E. coli” value was “not soluble”. For “MAHHHHHHMSAHEEEIDMILSMFSDECERYEGTSDSIIVHLPFHFELQVTLPPHGYPDASYPKLYLLSSPNAQLASAFSQAVYRRMRDEISLGIPMLALLIPLAQSVAEELKDLKERAEKARQDEAVERMSELQRKEEHRRETGIAIWSGQAIVDRRSRFVAHMARVHSMDEVREVVGHLRSVKSIACAAHPTIYAYRFTDANGVLQKDSDDDGESGASIKMMFLLDHLQIDGYVVVVTRWWGGILLGPDRFKHIMEVTKNLLLTIPEREKEMAASAKRKSLR”, the “soluble on expression in E. coli” value was “soluble”. In the case of “MAHHHHHHMSENVAAAQRRWQAGMHEVEAYLNALDSARADSAKAGLYHRAQQCMQHMEKIIRLLAKRIAREANIMAERARQALTEQQRLLQRNLRKRWKTKMLVYEENASAMLAAAEQHHYAERVREDERAHEELRSVRAGGSMAHSRSSKVQHLQSEIQLYLRQHRYREAERAQAQLSRFEKQEQQSQQRNLTHLQEQRLQAMRMKQEEQLAKMKAAYQQEKQEITRTCRAELDAMTRQHEVALQAVEERRLFLHERVQAILKAYNDADTLDPRAAGQKLIRISQLLWTSREVQQSSKRI”, the “soluble on expression in E. coli” value was “not soluble”. With “MAHHHHHHMSFTEWPVSRVRQEFVDYFKKQGHTFVPSSPVCPHDDPTLLFINAGMNQFKALFLGTADPNTDFGRLKRAANSQMCIRAGGKHNDLEDVGRDTYHHTFFEMLGSWSFGDYFKKEAIQWAWELLTEVYKLPKDQLYVTYFEGDESNGLDPDLEAKELWGQLLPESQIVPGNAKDNFWEMGDTGPCGPCSEVHFDRIGRRNAASLVNKDDPMVVEIWNLVFMQFERRAGGFLTPLPQKHIDTGMGLERLTSILQGVKSNYDTDAWIPLFEAIQTATGYPKSYAEIRNDPDSDALVAYRVVADHIRCLTSAVGDGVMPDSVGRGFVLRRIIRRAVRYGVQFLGAKPGFFTQLVDSVCTSLGPFFPHLKEPRNIQRIKAVLADEEQSFAKTWEMGLKHFNHAVNECRANSSKVISGSEAFVLHDRYGFPVDLTCLLAEKDGMTVDLEGFNTEMKESKVSAGRVAATKTFIDAYQLEELKTRGIPQTNDAAKYVWEDYTGDVLAIFDKKNSKFISLLEPGNDLGAEGVGIILSTTNFYAESGGQVYDTGRLVAASDSVFEGRRRTTWPATWCTWATSASTLPPRSPRLRWCSCRWTTSAACRSRQTIPRPTS” the “soluble on expression in E. coli” value was “not soluble”. In the case of “MAHHHHHHMSHYLLVTFTFNCPEIRILGPIKEQTIEKLNDVIPNATTTSRSNRTALPKFEYLPNPNHWYIKLDRQFCDEDGKSHLMVLLLDALSEEGSWRLVSSFVTKEPSGTGSKEGTETHTLFLNKLLAEDS”, the “soluble on expression in E. coli” value was “soluble”. With “MAHHHHHHMSKKRKSYENDEDVYDNKRNKKNVASSIDSYGRKVWDKEYYQKKVDEKVENDEDELILKLLPDLKKKSKLEPPPPSERKLLEERKENLLLEKNLGKVQILTQKTPKNEQGGYYCKICDCVLKDSQTYLDHINGKNHNRMLGYSMKVKKVTLDDVKKRLSLLKDKKQNKTEDVEKDPYEDAKKNLKDMQEDEERRIQKRKEKKMLKKLEKEKKKNENENENNDEESDNMNMMFKEMGLPTSFV” the “soluble on expression in E. coli” value was “soluble”. With “MAHHHHHHMSLAREKYLKRKRELLENINLIDIGEKISNTGKNEGNSKSDNIKKESRSRDFIKNDNRTRESFKKNDRGEYIDNDRKHLKSNNYNMLSSYNNKDIKNENRDLRKSPYDHRKLNNKNEQDILSNKTKRSSTNLQYNNDYAFVNKENNVLINNSSKMVNSTNNINEYLKDLNNIDINDSLILLFYVCKLLLDMCSKVNMNQSSMNTSVTSVEMLRDMKSKNRKNIKLFKINILNNILIYLSDENVNTLTQGNPNYKDNNFEKRHEEIRIDEKCIDIEHVGINIVIKVIYINNIKKLIFKYLYLINNNFKHDGVGNINMYDGRLNKNEEQNYFTTPLMEHKNINFMNN” the “soluble on expression in E. coli” value was “not soluble”. With “MAHHHHHHMSQLSASPREEPVGIPELFLQYLKAKDLKDQLAIVRAHPVLFTDDVVAALKDARAQMNETFVEVKETCRVIDAVSGSLQYTGTSVQLQQTVAKELLDEDAILKKFATSLAGLLRARETAGPAAPSTISSLATASRVSSSLGAGKSHSPGAWFTQPSLVFSVLTFLSAEEIFITAENVCRAWQTWLFLPDMSRFFWVGCVQREFPEQLQVLLQTAGDDLYQSDWRSLAMLCVTEGEQAAEAEEAEEAGDGGAVRGVVPFL” the “soluble on expression in E. coli” value was “not soluble”. With “MAHHHHHHMSQTATAGPALPPPEEPLTYPITFTKQAEESPQSEPGVAAPAAPSGLHQISIFSALHFLLPVYELAGWLPKTTVQHSRKSGDKSSPVSATAGGSKSTSGTAADVSIDLDAIPHDDVRAALRLLPVFEKFFVEGSKIVAQHTDLYYFIESFTLPTPKGPKVITRSKVEGDYRAVHQPSHAPASLGAAGAMTKTTVTNSTAYFSLLPGHNQFLLYYEDCEKLRHFTYLQLDQLRFAWVAVKELLEESKVFNLSDGSLTGLAKRDLQKNNTASPFCLASSAQAATATERASSHDNGSNGGAVIGRGGGNARLHQGTSGNVITAPSKETTEEKKRIQQMSFLREELEHECQRRWPYTPVSKSCIFSLEEKVEAELPADALEQLGIVGAHNTRNSKNGNRRGPRYYLATVDLPLLNKKGGAARFKAPRWWNNRRDAESAAAEATLLALRSMKS” the “soluble on expression in E. coli” value was “not soluble”. In the case of “MAHHHHHHMSRLKHVEWDEKNLEANAEYQRQHPVTIHITEPKTPYSYADGDDLEAEEEGLLKWDPAVNAKVKEIKEQIAGDFSDRPVAPIAKSGRPMLAEGTSTGELAQQQHQKEFRKMRKAVYADEGAMFKRALSHECKDEDDE”, the “soluble on expression in E. coli” value was “not soluble”. In the case of “MAHHHHHHMSRNPSNSDAAHAFWSTQPVPQTEDETEKIVFAGPMDEPKTVADIPEEPYPIASTFEWWTPNMEAADDIHAIYELLRDNYVEDDDSMFRFNYSEEFLQWALCPPNYIPDWHVAVRRKADKKLLAFIAGVPVTLRMGTPKYMKVKAQEKGEGEEAAKYDEPRHICEINFLCVHKQLREKRLAPILIKEATRRVNRTNVWQAVYTAGVLLPTPYASGQYFHRSLNPEKLVEIRFSGIPAQYQKFQNPMAMLKRNYQLPSAPKNSGLREMKPSDVPQVRRILMNYLDSFDVGPVFSDAEISHYLLPRDGVVFTYVVENDKKVTDFFSFYRIPSTVIGNSNYNLLNAAYVHYYAATSIPLHQLILDLLIVAHSRGFDVCNMVEILDNRSFVEQLKFGAGDGHLRYYFYNWAYPKIKPSQVALVML”, the “soluble on expression in E. coli” value was “not soluble”. In the case of “MAHHHHHHMSRSSLIFENNNDNNEKKKRKLFQDEYNYQSCYPLSYLNVYNNNNNNNHNSNNNSNNDNNRIYDYAYSQSYNYTYDQTYNDVYNKIYNDSKNIAQNVLNVQVNEEPYDKSLNNSHTTYPFSNIINSNQLNSNILNNNEMIDMRNFYENGNFVNPMIENKDQNQFNEPNKNNLNNTMANVNNINNINNIQFDKSLLINCIDVLLNFMNYNNLKDTITEETLHENLINLRFYILRLNGGKVSQKKITEYFHKM”, the “soluble on expression in E. coli” value was “not soluble”. In the case of “MAHHHHHHMSSQKESKKRKSDALDQACLELSEEVENAEEVPKKNDEVEEEDLETQFSNWKVNSGLLYDFVSRKELEWPSLSIDFGDYHNENVEDSVFNQIVCVGTHTSNKELNYLYVCEVLFPLEQLPQENCIYKTNQNYEGFDFCPDKKKFTIQSKIAHEGEVNRIKFLPLEKKNFVVTKAIDGNLHLFDINKHEIETSEDKMSPEVSFIGNSSDGFGLDFNAEKKYALTCGNDGVLNLYDYTEMDSKKVSPFYSVKYKSPLNDVCATNDPNLILSCADNGYILMYDIRVKGEEPAQQVLGQQVAVNCISLNKFTGHFASGSENGKIKIWDIKRFSEPQHIIHAHKEPIIRLNFSPNDSSILGSASTSRFINIYNLTKIGEELDAIDLSDGPSELIFSHGGHTQPITDFNWNHHKQLKMFIGSTGEDNTLQFWQLKTELLDEANTVPTSNTDVE”, the “soluble on expression in E. coli” value was “not soluble”. With “MAHHHHHHMSSVDSTHRLLHPCTGILPSASLHGRHSIALAPPPTLPPPPLLHTRIPIHIHIIHYATLNPATFLDHSTQLDYEMPTRFKKCRHQRGSTFCGYGRVGKHRKHESGRGNAGGMHHHRINFDKYHPGYFGKLGMDHYHRKKNPMWKPTINLNNLSRLIAAEEAAKAAKGGTLPVVDLQSSGYAKLLGNGHIQVPCIVKARYVSKLADKKIRKAGGAVVLQA” the “soluble on expression in E. coli” value was “not soluble”. In the case of “MAHHHHHHMSTEPTPRVIVFDLDGTLWRPEMYELWGGGAPFMLSKDNSSIAIDKKGTEVRLIGQTRELLQMLSTTEEWRNTHLAISSTCDEPRWAMELLQLFRFRDKRGNDVPMLSLFGDLVEIYKANKKNQHRTILKKVKEHDPTVRGDFSDFIFFDNQQDNIGHVSSIGVTSIYCPNGMVGGVFERGLKEWRDKEKKRAL”, the “soluble on expression in E. coli” value was “soluble”. In the case of “MAHHHHHHMSTEVSSGSNDGPSFHHHIQDAVHMIWNNQCSEAEEILFPYKEIHPRYALEYANKYLVQTLMNSTNESREILLELFKVADSLASAAKYSEPMFDFDVENDGDGTGMSMCLPSKAERKISKKSFNGRRKAAEKAGQSFVDNWKLECDVIYADALLMRSVCQLMMNSYFKGGVNLRRTWGLYHKLIQVVEADRTNQIPNELKMCVKYGTGAFYAFLALVPANLMRLLNVIGFISDKELGEQYLTEVFESNGVRSPFAALVLCTLYLFLPTGLGRVEETLAKAKRILDAMNQKYEHNTYFYGYSNFYHRKRGETAEALMAIQLAETNAERAGLVPILIRYLHADTLFMDLRFEEARDRYAALLDHLAKTKESFAYTGQVVLSLAACFVMLGDDAQAIQWLKKVGSMYNSRSKNDANSPKFASRVLANPRLLPLCGVYMLYINRDLAHMKVEQAERLLEELTRVTKGKDLSGPEPENMFTLFVGVIHKGCDRIDEAFGYMSKIFANEKRVPNDSMVLPYAYYEAGELEYRRGNYENAKTLFTKGQSLKGDGNETLMNRYNIALKQLKRTMEERKGA”, the “soluble on expression in E. coli” value was “not soluble”.
